Data taken from the DeepSol protein solubility set.

Assay: soluble on expression in E. coli; label from the status in PepcDB or PDB records

| Sequence | soluble on expression in E. coli |
| --- | --- |
| MDNLETDRLILINYTLEMIQATINGTEALEKTSGYHVSPDWPGIDFFFYLPYVLENVKKDDKMIKWTRLVVLKTENKIIGEIGGQGNPDETGEIEIGYSIVPDYQNKGYMSEALISMIDWLEHQPVINRIFARCYEQNEASIQVLKHNHFVHIKEKDTEEKQGRVMMWEYPIKQT | not soluble |
| MDNLKAELAQAKIDIDQLEKKQWETLEQLVMRDKLIEQCSLHTEILQKDFRESEARIIQLEQQLLEPGECGSELRATIKNQEELLKKQSEEIERCKEESRMLIQQKEEMENIHSEEIFGKNKTISNLRKQIDGDVERKKAKIRTLRKELCSADMNTGKMCRRAKRAEDRIAKLESDLEEERQKHVGQDISHILDQHNSTVMALEMQLANTQQEKATLNTSVEDLKLRTEEWKHNLLGQFEVLTANSKRECESKEEQIANHKREIMEKDSKIECLMELIQNSERSAEIQKMHDALREKDLKISELSEKLQGLLINQEGEADDTMIDQDDDNKSTHSEDSDGWDKINAI | not soluble |
| MDNLVDIDEDGTQEKLSVNSTPYQTQECVLYGSIFAKNVPDLERRLAGLCDPGCEEFFEHEMSFSLRSSGIMDIKTDIKLRRRFRTEHRIQNYWQLKYIGVPEPDQKCPTIVRKEISSLVHSQDMMTYAKSLGLRMDYEYMTQGKLWTKGNIKILHSILTSTSRAGTYDSNSIKSVSDSALVEISISLPESAEYMPAAKSLRDFADQLMPLVNMEKVDYWKKMFPAQAAPRR | soluble |
| MDPRGTKRGAEKTEVAEPRNKLPRPAPSLPTDPALYSGPFPFYRRPSELGCFSLDAQRQYHGDARALRYYSPPPTNGPGPNFDLRDGYPDRYQPRDEEVQERLDHLLCWLLEHRGRLEGGPGWLAEAIVTWRGHLTKLLTTPYERQEGWQLAASRFQGTLYLSEVETPNARAQRLARPPLLRELMYMGYKFEQYMCAGELPLLHSPLPLPRG | not soluble |
| MDPVFDFEDALDQTEMAQLAVDELKKIPEVNTLFAERWLPAPFNLDDLAKLPEGTLGHVYAIEMKARGFDPYFYKKVPVVDDISYLKMLWRSTHDIYHVVAGFDTDGIGEIGLQAFVLAQTPIPISVMLVSFGMVMTSLYQPAKFQDLMAEIARGYSLGSHTPRKLIAQKWDQFWDVPVIEIRECLGMNTVKQRERALEHHHHHH | soluble |
| MDQAHANAASLEASDLFDADWYLAEYPDVQSLQMPPAVHYLWLGARLGRNPSPRFSTRSYLDANPDVAQAGINPLLHFLLAGRDEGRSGTILAAPSRGSTETDVNASTFGEHRPYVFLPPADLDRIAAQWSKDSARPDAQGRGIAIFSAITGSYDSINHHEHLIPGADYLLFSDAPKPRYVYQPRQAPWFDCDTVRAARFIKTHPHMLLGGYRIAVWIDGNILIRGDLLPLVQRFEESGLAFGAVPHPLRQSVYAEAVECMKRGKDDEATIRRQMQRYRREEFDCEDLIESNLLMFRLGHPSLAPLLDTWWAQIESGSRRDQLSLNYALHKTGVEWLALTQRPHSVRDHPALALMHHRSQFNPAEPGVCLPRPRERTFAEVRAERIAAQSARRADVIVCVHNAPEMVARCLDSVRTGQNPDRHRIIIIDDGSGRDTAELVSRFAADTPNTVLIRNAVAGGYTRAANQGLKAMDADMAILLNSDTVVAPGWIEKLLDAAFSNPGVGIVGPMSSAASHQSIPEHQSRHDQTAINDLPPGWSAADMDAWCERMAPADFLPRVPLVHGFCFAVTREAVERIGYLDEDSFPDGYGEENDYCLRATDAGVGLAIATHTYVFHEKSQSYQSDRRISLMKRGNGKIRELHGDERVARAVRSMQQNPHLGRLRTAAARLFAVTTPETPALEHHHHHH | not soluble |
| MDQNTTPAPGLRETKKRETRQLISDHATRLFIERGFEHTTIAEIADAARVAKKTVTNYFPRKEDLALDHQDEFVAALAATVTARGAGETPLTALRHAFLAAVAAQDPVAGFAGQAFTRMIADSPTLTACLRGLHDRREEALTAALAGTTDTPPDDITPRTAAALLGGVHRVLFNRIQELTLAGRATPEIAEVLAREAPRAFDLLTPALAEYGRRP | not soluble |
| MDQVEIRTHTALHVVKGAVRKVLGAKWTASTYVNSNHGRLTVKFERKPSDQEMDKVFELANEKVRKNLPIIIEVLPREEAERKYGDEIYDLFLISAEVRELSIVVIPDWSINACNKQHTKFTSEIGEIIKDYWRYRNSKQLLEISFDIKC | soluble |
| MDRPSRITRFFMGIVSWAERLNLKYAKLGNPPVYDNATFPWSAEIEKEWPAIRKELDKILLRQSKLPSFQDISTDVKTISTDNRWKTFFLLGFGVKSEQNIKACPETWRIVNKIPGLTTAMFSIFEPGKHLPPHRGPYNGVLRLHLGLIVPEPNDHWRSAWTARSATGTKARCLEHHHHHH | not soluble |
| MDRRQKRLIFSTITSKMNLSEEVDLEDYVARPDKISGADINSICQESGMLAVRENRYIVLAKDFEKAYKTVIKKDEQEHEFYK | soluble |
| MDSARTFESIVIIFNPNSTGDAPELAQQLHGKLKELLTYQPEITLQPTEHAGHAVDLAREAASKGGDVLVVSVSGDGGYNEVVNGVMQADNPRAVAAVLAAGNANDHSRIIGTKPLEEAIAEGRVHNIDLLRIHTGQKENEPLEYAHSYIGFGLTPVVATELEKGSKGALKEMVTVIKSFSEFQPFAIRQSDGKRRKFDSLVFANINEMAKYATLSEAEDHPSDGKFEVIVFPHMPKWRVLLTALKATTQGLGDQPSVSSYEFTTLKPLPYQMDGEVKSVEANVKVTVESAPQALATLG | soluble |
| MDSKLIGKICKSIRYRDYETAIFLAACLLPCKPEYRMLMSIVLYLNGEYTRALFHLHKLNTCTSKYYESLCYKKKKDYKKAIKSLESILEGKVERDPDVDARIQEMFVDPGDEEFFESLLGDLCTLSGYREEGIGHYVRSFGKSFLFSPVENLLLENKVPQKRDKENVRQTGRRGIEEEYVSDSIEFHESLSPSLVKKYMEHVPGIGSYFISNAARRYFNLGMNDKSKACFELVRRKDPMFL | soluble |
| MDSNSTTSFLSNGYNHKETLKLIEDMKNSASNKGILLYVNSPGGGVYESDELYLKLKEYKEETGRPVWTYMSNQACSGGYYISMASDKVFSNRNAWTGSIGVIISLTNLKGLYDNLGIKGIYITSGRNKAMGAADLELTDEQRDILQSLVDEAYEQFVEIVAEGRKMTVEEVKRIADGRILSAKQALELNLIDEIATYDEVKEAFQRRAWKC | not soluble |
| MDSVCPQGKYIHPQNNSICCTKCHKGTYLYNDCPGPGQDTDCRECESGSFTASENHLRHCLSCSKCRKEMGQVEISSCTVDRDTVCGCRKNQYRHYWSENLFQCFNCSLCLNGTVHLSCQEKQNTVCTCHAGFFLRENECVSCSNCKKSLECTKLCLPQIEN | soluble |
| MDTNFKLSNCIGTVYRDGQVAFSKDGYSVISPIGNKLSIFDLRNNTSKTLDIDCNYNIKRLSISPSGYHLLASDERGVVHFVHLLSEFKIYTFRSNKPIGSLQWSPDATRVAICRENDLQIHEFGKSIENKVYNPFSLSRTYKLSSDSLKTIDWSDDANLLVSGGEDRVVRVVGAKDFKNLFIHPLASHKGYIVNCQFMKNSYDMITVCKRGLANVWTCNLRPGELVEGIWKKDEEGSDDIEMLEDGEQKVEKIFFEKTKKYWLSESSGSGKSVDVTAARFHKETNILATAFNNGVIVLHEIPSFALVHNLRVSEMRIQTVAWNLTGDWLAIGCGKGSTAQLVVWEWQSESYVMKQQAHSLRITTAEYSPDGSLMATGAEDGKVKIWNSRSSFCTVTFDEHTSGVTAVKWTQSGRAILSASLDGTVRAHDLKRYRNFRTLVCPEPTQLATLAVDKAGDLVIAGAKEVFNIYIWSFETGHLLDILSGHESAISSIDIHGNHIVSGSWDRTIKMWTIVDSQAETVEVSHEALDVKFSPAGDEIAVLTSDGVITFFEAKEMINLGSIDTKLDTDPARGSRDTITRQSAAKTKTFTRIRFSPDGNLLLAGGESNNFCLYSVPERMILKKWQITANRSLDGVILDFNRRNFTEFGNMQLVDTSDEEDELEPNNKMSIKLPGTKNFDLGERRARPEVNIYEVTYCPTGRRFAICSTEGVSVYSLDTISMFDPFQLDSQTNAEVIKRAVWNNDYSTAIMASLRLNNAQYITECLESTSISQIPLVASSLPLMYAERLLKWMVEGNVMSSTRHVHFYMIWLRAILQHHGMQLKGRADVATLTGIQQIVAHHQQHITKLANQNKFALNWLVKIRQSKKSVKKEEEEEEDVSDESDDEDIEDESAGSDDEDSDDSVEIIE | not soluble |
